For test [1], the target named is T1, human MCAM Y318A single mutant displayed on mammalian cells (human, UniProt P43121 24-646).
T1 construct: also called Y318A mutant
T1 chain: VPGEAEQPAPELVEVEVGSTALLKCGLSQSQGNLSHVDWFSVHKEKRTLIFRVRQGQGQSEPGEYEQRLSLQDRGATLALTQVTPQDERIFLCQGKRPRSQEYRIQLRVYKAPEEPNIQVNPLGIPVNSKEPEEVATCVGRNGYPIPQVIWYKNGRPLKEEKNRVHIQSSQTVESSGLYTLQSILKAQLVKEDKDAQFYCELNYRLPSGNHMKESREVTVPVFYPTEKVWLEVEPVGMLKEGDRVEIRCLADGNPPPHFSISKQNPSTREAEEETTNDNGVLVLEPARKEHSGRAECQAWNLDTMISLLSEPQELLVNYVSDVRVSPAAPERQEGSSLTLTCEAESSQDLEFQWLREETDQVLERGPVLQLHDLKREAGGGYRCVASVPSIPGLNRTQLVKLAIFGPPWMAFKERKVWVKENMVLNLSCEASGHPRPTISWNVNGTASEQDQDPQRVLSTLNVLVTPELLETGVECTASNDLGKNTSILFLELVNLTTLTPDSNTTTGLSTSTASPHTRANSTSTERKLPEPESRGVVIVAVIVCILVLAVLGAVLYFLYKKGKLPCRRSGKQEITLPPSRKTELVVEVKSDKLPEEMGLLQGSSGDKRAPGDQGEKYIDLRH
The experiment in a line: FACS on mammalian cells displaying the mutant. From the text: Twenty point mutants based on the structure information and shotgun mutagenesis information were designed and generated.

Test [2] addresses T2, MCAM Y318A mutant, purified protein from a stable cell line (human, UniProt P43121 24-559, limits assumed).
T2 chain: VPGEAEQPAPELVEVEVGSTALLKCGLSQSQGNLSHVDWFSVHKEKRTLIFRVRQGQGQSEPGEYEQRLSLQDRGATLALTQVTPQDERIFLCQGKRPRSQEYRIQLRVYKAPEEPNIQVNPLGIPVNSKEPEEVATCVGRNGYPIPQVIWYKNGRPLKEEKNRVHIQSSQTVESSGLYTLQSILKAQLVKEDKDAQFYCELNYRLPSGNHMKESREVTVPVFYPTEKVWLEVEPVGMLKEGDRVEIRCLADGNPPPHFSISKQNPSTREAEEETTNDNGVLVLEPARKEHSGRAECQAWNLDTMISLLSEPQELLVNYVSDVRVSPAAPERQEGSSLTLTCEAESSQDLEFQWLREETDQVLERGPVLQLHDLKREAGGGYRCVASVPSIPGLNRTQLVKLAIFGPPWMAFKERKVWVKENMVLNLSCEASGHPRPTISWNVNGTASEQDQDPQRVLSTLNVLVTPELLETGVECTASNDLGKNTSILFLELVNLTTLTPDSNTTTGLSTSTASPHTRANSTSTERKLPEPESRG
The experiment in a line: ForteBio BLI with purified protein. The procedure:
To further confirm the data, stable cell lines expressing I141A, P145V, D216A and Y318A respectively were generated. Fortebio assays were performed with the purified proteins as described above. The control ABX-MA1 antibody bound to wild type MCAM and the MCAM mutants.

Test [3] deals with T3, human MCAM (antigen of the BLI kinetics in Example 7) (human, UniProt P43121 24-559, limits assumed).
T3 chain: T2 chain with A295Y
The test can be described thus: BLI, ForteBio Octet QK, apparent KD. From the text: (§1) Apparent ka, apparent kd and apparent KD are binding kinetic parameters obtained using ForteBio assay formats.
On the technique in general: BLI is a label-free optical method that tracks binding on a fibre tip over time.

Test [4] has as its target T3, human MCAM (antigen of the BLI kinetics …). The test can be described thus: BLI, ForteBio Octet QK, apparent ka.
Excerpt: as §1

Where a chain is given by its changes, count along the chain named.

B1: mouse anti-human MCAM monoclonal antibody clone 1749.1.3 (antibody, V domains shown)
VH: DVKLVESGGDLVKPGGSLKLSCAASGFTFSSYIMSWVRQTPEKRLEWVATISSGGSSTYYPDSVKGRFTISRDNAKNTLYLQMSSLKSEDTAMYYCTRDDDYDVKVFAYWGQGTLVTVSA
VL: DIVMSQSPSSLAVSAGEKVTMNCKSSRSLLNSRIRKNYLAWYQQKPGQSPKLLIYWASTRESGVPDRFTGSGSGTDFTLTISSVQAEDLAVYYCKQSYNLLTFGAGTKLELK
notes: Mouse hybridoma monoclonal antibody; also called m1749
Turning to B1, the binding result in test [1] and in test [2] was “no binding” each time. In test [3], the Kd was 0.286 nM. Besides, the kon (commonly the second-order rate constant of association) in test [4] was found to be 1.41e+06 M⁻¹ s⁻¹.

These data come from US20170129954A1 (PROTHENA BIOSCIENCES, published 2017).
